US20240325557A1 (INNATE PHARMA, published 2024)
Residue numbers refer to the chain shown, from its start.

Tests used:
human Nectin-4 Mutant 7 = target: T1, human Nectin-4 Mutant 7 (human, UniProt Q96NY8 32-510); experiment: binding to HEK-293T cells transfected with the Nectin-4 mutant
T1 construct: Expressed on transfected HEK-293T cells; also called S195A/K197T/S199A
T1 chain: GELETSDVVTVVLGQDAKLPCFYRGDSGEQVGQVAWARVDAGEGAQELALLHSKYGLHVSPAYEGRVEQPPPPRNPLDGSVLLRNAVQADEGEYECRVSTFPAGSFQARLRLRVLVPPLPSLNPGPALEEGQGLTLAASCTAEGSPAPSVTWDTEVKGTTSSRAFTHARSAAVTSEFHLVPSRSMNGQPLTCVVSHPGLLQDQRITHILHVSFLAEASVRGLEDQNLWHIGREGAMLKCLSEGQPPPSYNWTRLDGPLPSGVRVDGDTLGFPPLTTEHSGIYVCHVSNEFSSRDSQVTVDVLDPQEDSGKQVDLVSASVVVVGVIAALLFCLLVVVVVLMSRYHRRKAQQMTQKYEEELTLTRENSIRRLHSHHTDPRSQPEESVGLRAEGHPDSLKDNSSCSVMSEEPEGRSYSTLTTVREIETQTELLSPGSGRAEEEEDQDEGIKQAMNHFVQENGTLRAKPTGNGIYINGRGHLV

[1] = target: T2, human Nectin-4 Mutant 7bis (human, UniProt Q96NY8 32-510); experiment: as above
T2 construct: Expressed on transfected HEK-293T cells; also called A72P/G73N/K197T/S199A
T2 chain: T1 chain with A41P, G42N, A164S

binding result (human Nectin-4 Mutant 7): no binding
binding result [1]: no binding
B1: antibody 6A7 (antibody, human IgG1, V domains shown)
VH: QVQLKESGAELVKPGASVKLSCKASGYTFTSYWMHWVKQRPGHGLEWVGEIDPSDSYTNYNQKFKGKATLTIDKSSSTVYMQLSSLTSEDSAVYYCARSGNYDAMDYWGQGTSVTVSA
VL: DIVMTQAAFSSAVTLGTSASISCRSSKSLLHSNGITYLYWYLQKPGQSPHFLIYQMSNLASGVPDRFTSSGSGTDFTLRISRVEAEDVGVYYCAQNLELPWTFGGGTKLEIK
notes: also called CHG1-M-4N4-6A7
